Results published in patent US20230002732A1.

How the values were obtained:
E4bp4 = experiment: yeast-two-hybrid screen, E4bp4 as bait
E4bp4 (NFIL3), wild type = experiment: cell_activity; conditions: 3T3 cells, 48 h; transcriptional repression

Molecule | Positive clones (E4bp4) | activity (% decrease in luciferase) (E4bp4 (NFIL3), wild type)
DSP (from UniProt P15924 1-2871) | 2 clones | –
FLJ13057 | 5 clones | –
SETX (from UniProt Q7Z333 1-2677) (enzyme) | 2 clones | –
SNRP70 (from UniProt P08621 2-437) | 2 clones | –
ZNF237 | 5 clones | –
pGL3-E4bp4-CS reporter with three E4bp4 consensus binding sites | – | 50
ZNF198 (protein, UniProt Q9UBW7 1-1377, looked up) MDTSSVGGLELTDQTPVLLGSTAMATSLTNVGNSFSGPANPLVSRSNKFQNSSVEDDDDVVFIEPVQPPPPSVPVVADQRTITFTSSKNEELQGNDSKITPSSKELASQKGSVSETIVIDDEEDMETNQGQEKNSSNFIERRPPETKNRTNDVDFSTSSFSRSKVNAGMGNSGITTEPDSEIQIANVTTLETGVSSVNDGQLENTDGRDMNLMITHVTSLQNTNLGDVSNGLQSSNFGVNIQTYTPSLTSQTKTGVGPFNPGRMNVAGDVFQNGESATHHNPDSWISQSASFPRNQKQPGVDSLSPVASLPKQIFQPSVQQQPTKPVKVTCANCKKPLQKGQTAYQRKGSAHLFCSTTCLSSFSHKPAPKKLCVMCKKDITTMKGTIVAQVDSSESFQEFCSTSCLSLYEDKQNPTKGALNKSRCTICGKLTEIRHEVSFKNMTHKLCSDHCFNRYRMANGLIMNCCEQCGEYLPSKGAGNNVLVIDGQQKRFCCQSCVSEYKQVGSHPSFLKEVRDHMQDSFLMQPEKYGKLTTCTGCRTQCRFFDMTQCIGPNGYMEPYCSTACMNSHKTKYAKSQSLGIICHFCKRNSLPQYQATMPDGKLYNFCNSSCVAKFQALSMQSSPNGQFVAPSDIQLKCNYCKNSFCSKPEILEWENKVHQFCSKTCSDDYKKLHCIVTYCEYCQEEKTLHETVNFSGVKRPFCSEGCKLLYKQDFARRLGLRCVTCNYCSQLCKKGATKELDGVVRDFCSEDCCKKFQDWYYKAARCDCCKSQGTLKERVQWRGEMKHFCDQHCLLRFYCQQNEPNMTTQKGPENLHYDQGCQTSRTKMTGSAPPPSPTPNKEMKNKAVLCKPLTMTKATYCKPHMQTKSCQTDDTWRTEYVPVPIPVPVYIPVPMHMYSQNIPVPTTVPVPVPVPVFLPAPLDSSEKIPAAIEELKSKVSSDALDTELLTMTDMMSEDEGKTETTNINSVIIETDIIGSDLLKNSDPETQSSMPDVPYEPDLDIEIDFPRAAEELDMENEFLLPPVFGEEYEEQPRPRSKKKGAKRKAVSGYQSHDDSSDNSECSFPFKYTYGVNAWKHWVKTRQLDEDLLVLDELKSSKSVKLKEDLLSHTTAELNYGLAHFVNEIRRPNGENYAPDSIYYLCLGIQEYLCGSNRKDNIFIDPGYQTFEQELNKILRSWQPSILPDGSIFSRVEEDYLWRIKQLGSHSPVALLNTLFYFNTKYFGLKTVEQHLRLSFGTVFRHWKKNPLTMENKACLRYQVSSLCGTDNEDKITTGKRKHEDDEPVFEQIENTANPSRCPVKMFECYLSKSPQNLNQRMDVFYLQPECSSSTDSPVWYTSTSLDRNTLENMLVRVLLVKDIYDKDNYELDEDTD | 5 clones | –
RNF111 (enzyme, UniProt Q6ZNA4 1-994, looked up) MSQWTPEYNELYTLKVDMKSEIPSDAPKTQESLKGILLHPEPIGAAKSFPAGVEMINSKVGNEFSHLCDDSQKQEKEMNGNQQEQEKSLVVRKKRKSQQAGPSYVQNCVKENQGILGLRQHLGTPSDEDNDSSFSDCLSSPSSSLHFGDSDTVTSDEDKEVSVRHSQTILNAKSRSHSARSHKWPRTETESVSGLLMKRPCLHGSSLRRLPCRKRFVKNNSSQRTQKQKERILMQRKKREVLARRKYALLPSSSSSSENDLSSESSSSSSTEGEEDLFVSASENHQNNPAVPSGSIDEDVVVIEASSTPQVTANEEINVTSTDSEVEIVTVGESYRSRSTLGHSRSHWSQGSSSHASRPQEPRNRSRISTVIQPLRQNAAEVVDLTVDEDEPTVVPTTSARMESQATSASINNSNPSTSEQASDTASAVTSSQPSTVSETSATLTSNSTTGTSIGDDSRRTTSSAVTETGPPAMPRLPSCCPQHSPCGGSSQNHHALGHPHTSCFQQHGHHFQHHHHHHHTPHPAVPVSPSFSDPACPVERPPQVQAPCGANSSSGTSYHEQQALPVDLSNSGIRSHGSGSFHGASAFDPCCPVSSSRAAIFGHQAAAAAPSQPLSSIDGYGSSMVAQPQPQPPPQPSLSSCRHYMPPPYASLTRPLHHQASACPHSHGNPPPQTQPPPQVDYVIPHPVHAFHSQISSHATSHPVAPPPPTHLASTAAPIPQHLPPTHQPISHHIPATAPPAQRLHPHEVMQRMEVQRRRMMQHPTRAHERPPPHPHRMHPNYGHGHHIHVPQTMSSHPRQAPERSAWELGIEAGVTAATYTPGALHPHLAHYHAPPRLHHLQLGALPLMVPDMAGYPHIRYISSGLDGTSFRGPFRGNFEELIHLEERLGNVNRGASQGTIERCTYPHKYKKVTTDWFSQRKLHCKQDGEEGTEEDTEEKCTICLSILEEGEDVRRLPCMHLFHQVCVDQWLITNKKCPICRVDIEAQLPSES | 1 clones | –
PIAS3 (enzyme, UniProt Q9Y6X2 1-628, looked up) MAELGELKHMVMSFRVSELQVLLGFAGRNKSGRKHELLAKALHLLKSSCAPSVQMKIKELYRRRFPRKTLGPSDLSLLSLPPGTSPVGSPGPLAPIPPTLLAPGTLLGPKREVDMHPPLPQPVHPDVTMKPLPFYEVYGELIRPTTLASTSSQRFEEAHFTFALTPQQVQQILTSREVLPGAKCDYTIQVQLRFCLCETSCPQEDYFPPNLFVKVNGKLCPLPGYLPPTKNGAEPKRPSRPINITPLARLSATVPNTIVVNWSSEFGRNYSLSVYLVRQLTAGTLLQKLRAKGIRNPDHSRALIKEKLTADPDSEVATTSLRVSLMCPLGKMRLTVPCRALTCAHLQSFDAALYLQMNEKKPTWTCPVCDKKAPYESLIIDGLFMEILSSCSDCDEIQFMEDGSWCPMKPKKEASEVCPPPGYGLDGLQYSPVQGGDPSENKKKVEVIDLTIESSSDEEDLPPTKKHCSVTSAAIPALPGSKGVLTSGHQPSSVLRSPAMGTLGGDFLSSLPLHEYPPAFPLGADIQGLDLFSFLQTESQHYGPSVITSLDEQDALGHFFQYRGTPSHFLGPLAPTLGSSHCSATPAPPPGRVSSIVAPGGALREGHGGPLPSGPSLTGCRSDIISLD | 2 clones | –
C18orf25 (protein, UniProt Q96B23 1-404, looked up) MKMEEAVGKVEELIESEAPPKASEQETAKEEDGSVELESQVQKDGVADSTVISSMPCLLMELRRDSSESQLASTESDKPTTGRVYESDSSNHCMLSPSSSGHLADSDTLSSAEENEPSQAETAVEGDPSGVSGATVGRKSRRSRSESETSTMAAKKNRQSSDKQNGRVAKVKGHRSQKHKERIRLLRQKREAAARKKYNLLQDSSTSDSDLTCDSSTSSSDDDEEVSGSSKTITAEIPDGPPVVAHYDMSDTNSDPEVVNVDNLLAAAVVQEHSNSVGGQDTGATWRTSGLLEELNAEAGHLDPGFLASDKTSAGNAPLNEEINIASSDSEVEIVGVQEHARCVHPRGGVIQSVSSWKHGSGTQYVSTRQTQSWTAVTPQQTWASPAEVVDLTLDEDSRRKYLL | 1 clones | –
ZMYM5 (protein, UniProt Q9UJ78 1-669, looked up) MEKCSVGGLELTEQTPALLGNMAMATSLMDIGDSFGHPACPLVSRSRNSPVEDDDDDDDVVFIESIQPPSISAPAIADQRNFIFASSKNEKPQGNYSVIPPSSRDLASQKGNISETIVIDDEEDIETNGGAEKKSSCFIEWGLPGTKNKTNDLDFSTSSLSRSKTKTGVRPFNPGRMNVAGDLFQNGEFATHHSPDSWISQSASFPSNQKQPGVDSLSPVALLRKQNFQPTAQQQLTKPAKITCANCKKPLQKGQTAYQRKGSAHLFCSTTCLSSFSHKRTQNTRSIICKKDASTKKANVILPVESSKSFQEFYSTSCLSPCENNWNLKKGVFNKSRCTICSKLAEIRHEVSVNNVTHKLCSNHCFNKYRLANGLIMNCCEHCGEYMPSKSTGNNILVIGGQQKRFCCQSCINEYKQMMETKSKKLTASENRKRNAFREENEKQLYGSSNTLLKKIEGIPEKKEKTSQLQLSVECGTDTLLIQENVNLPPSSTSTIADTFQEQLEEKNFEDSIVPVVLSADPGTWPRILNIKQRDTLVENVPPQVRNFNFPKDNTGRKFSETYYTRILPNGEKTTRSWLLYSTSKDSVFCLYCKLFGEGKNQLKNENGCKDWQHLSHILSKHEESEMHVNNSVKYSKLKSDLKKNKAIDAAEHRLYENEKNDGVLLLYT | 5 clones | –

The next lines start with results.

Positive clones (E4bp4) | Molecule | activity (% decrease in luciferase) (E4bp4 (NFIL3), wild type)
1 clones | CHD1 (from UniProt O14646 1-1710) | –
1 clones | FLJ544447 | –
1 clones | FLNA (from UniProt P21333 2-2647) | –
1 clones | HIPK1 (from UniProt Q86Z02 1-1210) (enzyme) | –
5 clones | HIPK3 (from UniProt Q9H422 1-1215) (enzyme) | –
20 clones | PIAS1 (from UniProt O75925 2-651) | –
1 clones | RANBP2 (from UniProt P49792 1-3224) (enzyme) | –
1 clones | SORL1 (from UniProt Q92673 82-2214) (receptor) | –
2 clones | TLK2 (from UniProt Q86UE8 1-772) (enzyme) | –
1 clones | U5-200KD (from UniProt O75643 1-2136) (enzyme) | –
1 clones | ZBTB16 (protein, UniProt Q05516 1-673, looked up) MDLTKMGMIQLQNPSHPTGLLCKANQMRLAGTLCDVVIMVDSQEFHAHRTVLACTSKMFEILFHRNSQHYTLDFLSPKTFQQILEYAYTATLQAKAEDLDDLLYAAEILEIEYLEEQCLKMLETIQASDDNDTEATMADGGAEEEEDRKARYLKNIFISKHSSEESGYASVAGQSLPGPMVDQSPSVSTSFGLSAMSPTKAAVDSLMTIGQSLLQGTLQPPAGPEEPTLAGGGRHPGVAEVKTEMMQVDEVPSQDSPGAAESSISGGMGDKVEERGKEGPGTPTRSSVITSARELHYGREESAEQVPPPAEAGQAPTGRPEHPAPPPEKHLGIYSVLPNHKADAVLSMPSSVTSGLHVQPALAVSMDFSTYGGLLPQGFIQRELFSKLGELAVGMKSESRTIGEQCSVCGVELPDNEAVEQHRKLHSGMKTYGCELCGKRFLDSLRLRMHLLAHSAGAKAFVCDQCGAQFSKEDALETHRQTHTGTDMAVFCLLCGKRFQAQSALQQHMEVHAGVRSYICSECNRTFPSHTALKRHLRSHTGDHPYECEFCGSCFRDESTLKSHKRIHTGEKPYECNGCGKKFSLKHQLETHYRVHTGEKPFECKLCHQRSRDYSAMIKHLRTHNGASPYQCTICTEYCPSLSSMQKHMKGHKPEEIPPDWRIEKTYLYLCYV | –
